Test results reported in patent US6635627B1, “Anti-cancer products for treating cystic fibrosis” (Centre National de la Recherche Scientifique (CNRS), priority 1997, dated 2003).

Test: Retention on affinity column grafted with glutathione (GSH) after thrombin cutting
Assay type: binding
Settings: after cutting GST-NBF1 with thrombin; coelutes with GST
Protocol: The suspension was centrifuged at 17,000 rpm for 40 minutes, and at 4° C., on a JA20 rotor (Beckman). The supernatant was incubated with 5 ml of a glutathione support (G4B Pharmacia) at ambient temperature for 30 minutes. The column was filled. The fusion protein was eluted with a 10 mM glutathione, 50 mM Tris, pH 8, solution at a flow rate of 0.05 ml/min. The fractions absorbing at 280 nm were collected and applied in portions of 500 μl to an ion exchange column (MonoQ, Pharmacia). The column was eluted with a 150 mM solution of NaCl and a 42 kD protein was identified on an SDS-PAGE gel and then confirmed by mass spectroscopy. The production yields of soluble fusion protein are 5 mg/l of culture.
Following purification, the fusion protein sample was dialyzed against a buffer (150 mM NaCl, 2.5 mM CaCl2, 50 mM Tris/HC1) at pH=8. Human thrombin (T7009, Sigma) was added to give a final concentration of 5u per mg of fusion protein. The mixture was incubated at ambient temperature for 30 minutes. The products of the cutting reaction were characterized on an SDS-PAGE gel and a protein having a molecular weight of 18 kD (corresponding to the expected molecular weight of NBF1) was observed.
The GST-NBF1 fusion protein is efficiently recognized by an anti-NBF1 antibody (MATG 1061, distributed by Transgene). The affinity of this recombinant protein for ATP was verified. […]

B1: NBF1: Recombinant NBF1 domain of the CFTR protein (sequence R450-I586), 18 kD, released from GST fusion by thrombin (protein, UniProt P13569 450-586, looked up, fragment)
chain: RGQLLAVAGSTGAGKTSLLMVIMGELEPSEGKIKHSGRISFCSQFSWIMPGTIKENIIFGVSYDEYRYRSVIKACQLEEDISKFAEKDNIVLGEGGITLSGGQRARISLARAVYKDADLYLLDSPFGYLDVLTEKEI
- behaviour on column of immobilized GSH: retained on the GSH column
